Source: patent publication US20140018290A1 (Novo Nordisk, published 2014)

Legend:
human Leptin receptor [1] = molecular target: T1, human Leptin receptor (human, UniProt P48357 22-1165); experiment: SPA, displacement of human [125I]-Leptin from human Leptin receptor membranes, 2% HSA added; mean, n=3
T1 construct: whole, on cells; also called hLeptin receptor
T1 sequence (looked up): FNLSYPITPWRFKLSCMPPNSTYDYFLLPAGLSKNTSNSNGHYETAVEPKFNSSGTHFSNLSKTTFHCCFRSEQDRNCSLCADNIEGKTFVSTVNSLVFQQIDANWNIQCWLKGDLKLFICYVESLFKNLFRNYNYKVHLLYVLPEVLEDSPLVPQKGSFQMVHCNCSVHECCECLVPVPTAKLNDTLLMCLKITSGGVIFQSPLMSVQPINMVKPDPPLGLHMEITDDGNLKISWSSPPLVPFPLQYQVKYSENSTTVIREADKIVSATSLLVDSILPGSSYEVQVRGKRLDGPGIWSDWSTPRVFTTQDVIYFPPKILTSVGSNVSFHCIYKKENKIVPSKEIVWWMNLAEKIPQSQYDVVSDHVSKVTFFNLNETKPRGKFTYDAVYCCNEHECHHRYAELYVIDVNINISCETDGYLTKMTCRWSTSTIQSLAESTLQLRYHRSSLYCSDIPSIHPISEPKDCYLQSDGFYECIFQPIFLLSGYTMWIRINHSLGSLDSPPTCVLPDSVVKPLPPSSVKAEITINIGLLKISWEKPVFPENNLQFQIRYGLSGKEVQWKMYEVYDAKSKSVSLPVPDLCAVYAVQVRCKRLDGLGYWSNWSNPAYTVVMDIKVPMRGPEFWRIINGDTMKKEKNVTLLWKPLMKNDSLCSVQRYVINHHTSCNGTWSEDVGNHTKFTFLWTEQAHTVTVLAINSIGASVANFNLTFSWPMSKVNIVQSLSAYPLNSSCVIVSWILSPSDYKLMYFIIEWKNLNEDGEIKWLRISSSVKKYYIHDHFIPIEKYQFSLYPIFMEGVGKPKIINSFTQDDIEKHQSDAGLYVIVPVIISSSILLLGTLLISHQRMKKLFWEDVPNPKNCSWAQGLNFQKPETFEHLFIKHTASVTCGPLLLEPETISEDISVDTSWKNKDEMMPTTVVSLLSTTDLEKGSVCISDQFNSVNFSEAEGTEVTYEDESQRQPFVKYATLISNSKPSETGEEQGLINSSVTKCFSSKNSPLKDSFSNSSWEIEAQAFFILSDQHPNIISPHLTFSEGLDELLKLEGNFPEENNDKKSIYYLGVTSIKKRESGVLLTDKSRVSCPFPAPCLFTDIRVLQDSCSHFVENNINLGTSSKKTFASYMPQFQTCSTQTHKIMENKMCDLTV
Method: (§1) Human Leptin receptor SPA binding assay were performed in white 96-well plates in a total volume of 200 μl per well. Wheat germ agglutinin coated beads containing scintillation liquid were reconstituted in binding buffer (50 mM Hepes, 1 mM CaCl₂, 5 mM MgCl₂, 0.02% Tween 20, 0.25% Ovalbumin pH 7.4) and mixed with membrane preparation to give final concentration of 1 mg beads and 10 μg total protein per well. 50.000 cpm per well of radio ligand human [¹²⁵I]-Leptin was added corresponding to a concentration of approximately […]. Human serum albumin was added to a final concentration of 2% when binding in presence of albumin was investigated. Freeze dried Leptin analogues were dissolved in PBS to 100 μM and serial diluted in binding buffer to give a final assay concentration ranging from 100 nM to […]. The plate was sealed and incubated at +25° C. for 2 hours in a plate shaker set at 400 rpm and thereafter centrifuged at 1500 rpm for 10 minutes prior to reading of luminescence on a microplate scintillation and luminescence counter. Displacement of radioligand was measured as reduction in luminescence and IC₅₀ values were calculated by nonlinear regression analysis of sigmoidal dose-response curves.

human Leptin receptor [2] = molecular target: T1, human Leptin receptor; experiment: cell-based or functional assay
human Leptin receptor [3] = molecular target: T1, human Leptin receptor; experiment: SPA, displacement of human [125I]-Leptin from human Leptin receptor membranes, 0% HSA added; mean, n=3
Method: as §1

human Leptin receptor [4] = molecular target: T1, human Leptin receptor; experiment: whole cell binding, displacement of [125I]-hLeptin on HEK293 cells expressing human Leptin receptor; mean, n=4
Method: HEK293 cells stably expressing the human Leptin receptor were seeded in poly-D-lysine coated 24 well plates at 200.000 cells per well and cultured for two days in alpha-minimum essential medium (MEM), cell culture media containing 10% heat inactivated fetal calf serum (FCS), 1% penicillin-streptomycin (P/S), 1 mg/ml Zeocin and 1 mg/ml G418 antibiotic at +37° C. in a humidified atmosphere with 5% CO₂. Prior to the experiment, cells were rinsed in pure MEM medium, followed by incubation in Leptin analogues at 10,3,1,0.3,0.1,0.03 and 0.01 nM concentrations for 45 minutes in MEM containing 0.005% polysorbate 20 and 0.1% ovalbumin and [¹²⁵I]-hLeptin 100000 cpm. The cells were washed three times in ice cold MEM and were lysed in lysis buffer containing 1.0% nonidet P-40, 0.5% triton X-100 (C₁₄H₂₂O(C₂H₄O)ₙ) and 1M sodium hydroxide. Samples are transferred to plastic

Row | Binder | IC50 (human Leptin receptor [1]) [nM] | Luciferase assay, Mean EC50 nM, 0% HSA added (human Leptin receptor [2]) [nM] | Luciferase assay, Mean IC50 nM, 0.7% HSA added (human Leptin receptor [2]) [nM] | IC50 (human Leptin receptor [3]) [nM] | IC50 (human Leptin receptor [4]) [nM]
1 | Compound C (protracted rat Leptin: rat Leptin alkylated with compound 2 at the N-terminal amino group) (ligand, N-terminal amino group alkylated with compound 2 (protractor group: C18 diacid (17-carboxyheptadecanoyl)-gamma-Glu-OEG-OEG-4-formylbenzylamide, attached by reductive alkylation), also called protracted rLeptin) VPIHKVQDDTKTLIKTIVTRINDISHTQSVSARQRVTGLDFIPGLHPILSLSKMDQTLAVYQQILTSLPSQNVLQIAHDLENLRDLLHLLAFSKSCSLPQTRGLQKPESLDGVLEASLYSTEVVALSRLQGSLQDILQQLDLSPEC | 5.93 | 0.24 | 0.42 | 0.38 | –
2 | Compound A (protracted rat Leptin: rat Leptin alkylated with compound 1 at the N-terminal amino group) (ligand, N-terminal amino group alkylated with compound 1 (protractor group with 16-(tetrazol-5-yl)hexadecanoylsulfamoyl-butyryl, two Glu, OEG, Gly and an aldehyde-derived anchor), Mw 17190 g/mol) VPIHKVQDDTKTLIKTIVTRINDISHTQSVSARQRVTGLDFIPGLHPILSLSKMDQTLAVYQQILTSLPSQNVLQIAHDLENLRDLLHLLAFSKSCSLPQTRGLQKPESLDGVLEASLYSTEVVALSRLQGSLQDILQQLDLSPEC | 37.1 | 1.57 | 1.92 | 1.9 | 1.76
3 | Rat Leptin (ligand, also called rLeptin; wt rat Leptin) VPIHKVQDDTKTLIKTIVTRINDISHTQSVSARQRVTGLDFIPGLHPILSLSKMDQTLAVYQQILTSLPSQNVLQIAHDLENLRDLLHLLAFSKSCSLPQTRGLQKPESLDGVLEASLYSTEVVALSRLQGSLQDILQQLDLSPEC | 0.88 | 0.41 | 0.52 | 0.49 | 1.01
